Results on one substance are retold here after paper PMC9666535.

The assay has as its target PCNA N107C labeled with Cy5 (human) (UniProt P12004). The assay is described as follows: native gel or EMSA; protein-protein EMSA in solution, no DNA: 1 nM PCNA-Cy5 with increasing Polδ Exo^− or Lig1, 20 min at RT, 6% non-denaturing TBE-PAGE; bound PCNA fitted to a quadratic isotherm. Background: A gel shift assay detects complexes by their altered migration in electrophoresis.

PCNA N107C labeled with Cy5 (human), sequence (P12004 whole entry N107C): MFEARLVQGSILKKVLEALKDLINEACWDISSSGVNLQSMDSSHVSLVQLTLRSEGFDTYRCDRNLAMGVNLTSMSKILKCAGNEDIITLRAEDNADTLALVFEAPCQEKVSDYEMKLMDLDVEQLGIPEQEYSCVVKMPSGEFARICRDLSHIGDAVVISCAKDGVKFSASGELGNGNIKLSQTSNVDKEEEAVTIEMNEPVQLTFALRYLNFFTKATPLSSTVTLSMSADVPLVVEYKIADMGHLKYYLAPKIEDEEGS

With “Polδ Exo^− (D515V in p125) (from UniProt P28340 1-1107; Q9HCU8 1-107) (complex)”, the Kd was 15 nM.

By Kd is commonly meant the free concentration of one partner at which half of the binding sites on the other are occupied at equilibrium, for simple one-to-one binding. The low end stands for tighter binding, the high end for weaker binding.
